Laboratory results taken from the RNAGym collection of RNA variant scans (doi:10.7554/elife.80360).

B1: HDV Ribozyme (parent)
chain: GGCCGGCAUGGUCCCAGCCUCCUCGCUGGCGCCGGCUGGGCAACAUUCCGAGGGGACCGUCCCCUCGGUAAUGGCGAAUGGGACCCA

Variants of: B1
Assay: self-cleavage, relative activity (ratio to wild type); higher = more cleavage; co-transcriptional

**Q.** With GGCCGGCAUCGUCCCAGCAUCCUCGCUGGCGCCGGCUGGGCAACAUUCCGAGGGGACCGUCCCCUCGGUAAUGGCGAAUGGGACCCA [G10C C19A] as the variant, how does the self-cleavage read?
**A.** 0.0563

**Q.** For GGCCGGCAUCGUCCCAGCUUCCUCGCUGGCGCCGGCUGGGCAACAUUCCGAGGGGACCGUCCCCUCGGUAAUGGCGAAUGGGACCCA [G10C C19U], which self-cleavage is on record?
**A.** 0.0264

**Q.** For GGCCGGCAUCGUCCCAGCGUCCUCGCUGGCGCCGGCUGGGCAACAUUCCGAGGGGACCGUCCCCUCGGUAAUGGCGAAUGGGACCCA [G10C C19G], which self-cleavage is on record?
**A.** 0.0811

**Q.** Which self-cleavage does the source give for GGCCGGCAUCGUCCCAGCCUCGUCGCUGGCGCCGGCUGGGCAACAUUCCGAGGGGACCGUCCCCUCGGUAAUGGCGAAUGGGACCCA [G10C C22G] here?
**A.** 0

**Q.** For GGCCGGCAUCGUCCCAGCCUCUUCGCUGGCGCCGGCUGGGCAACAUUCCGAGGGGACCGUCCCCUCGGUAAUGGCGAAUGGGACCCA [G10C C22U], which self-cleavage is on record?
**A.** 0.326

**Q.** Which self-cleavage does the source give for GGCCGGCAUCGUCCCAGCCUCAUCGCUGGCGCCGGCUGGGCAACAUUCCGAGGGGACCGUCCCCUCGGUAAUGGCGAAUGGGACCCA [G10C C22A] here?
**A.** 0.108

**Q.** For GGCCGGCAUCGUCCCAGCCUCCUCGCUGGCGCUGGCUGGGCAACAUUCCGAGGGGACCGUCCCCUCGGUAAUGGCGAAUGGGACCCA [G10C C33U], which self-cleavage is on record?
**A.** 0.696

**Q.** For GGCCGGCAUCGUCCCAGCCUCCUCGCUGGCGCGGGCUGGGCAACAUUCCGAGGGGACCGUCCCCUCGGUAAUGGCGAAUGGGACCCA [G10C C33G], which self-cleavage is on record?
**A.** 0.145

**Q.** With GGCCGGCAUCGUCACAGCCUCCUCGCUGGCGCCGGCUGGGCAACAUUCCGAGGGGACCGUCCCCUCGGUAAUGGCGAAUGGGACCCA [G10C C14A] as the variant, how does the self-cleavage read?
**A.** 0.237

**Q.** For GGCCGGCAUCGUCCCAGCCUCCUCGCUGGCGCCGGUUGGGCAACAUUCCGAGGGGACCGUCCCCUCGGUAAUGGCGAAUGGGACCCA [G10C C36U], which self-cleavage is on record?
**A.** 0.554

**Q.** Which self-cleavage does the source give for GGCCGGCAUCGUCCCAGCCUCCUCGCUGGCGCCGGAUGGGCAACAUUCCGAGGGGACCGUCCCCUCGGUAAUGGCGAAUGGGACCCA [G10C C36A] here?
**A.** 0.0627

**Q.** For GGCCGGCAUCGUCCCAGCCUCCUCGCUGGCGCCGGGUGGGCAACAUUCCGAGGGGACCGUCCCCUCGGUAAUGGCGAAUGGGACCCA [G10C C36G], which self-cleavage is on record?
**A.** 0.0831

**Q.** For GGCCGGCAUCGUCCCAGCCUCCUCGCUGGCGACGGCUGGGCAACAUUCCGAGGGGACCGUCCCCUCGGUAAUGGCGAAUGGGACCCA [G10C C32A], which self-cleavage is on record?
**A.** 0.185

**Q.** With GGCCGGCAUCGUCCCAGCCUCCUCGCUGGCGUCGGCUGGGCAACAUUCCGAGGGGACCGUCCCCUCGGUAAUGGCGAAUGGGACCCA [G10C C32U] as the variant, how does the self-cleavage read?
**A.** 0.855

**Q.** With GGCCGGCAUCGUGCCAGCCUCCUCGCUGGCGCCGGCUGGGCAACAUUCCGAGGGGACCGUCCCCUCGGUAAUGGCGAAUGGGACCCA [G10C C13G] as the variant, how does the self-cleavage read?
**A.** 0.0723

**Q.** With GGCCGGCAUCGUACCAGCCUCCUCGCUGGCGCCGGCUGGGCAACAUUCCGAGGGGACCGUCCCCUCGGUAAUGGCGAAUGGGACCCA [G10C C13A] as the variant, how does the self-cleavage read?
**A.** 0

**Q.** For GGCCGGCAUCGUCCCAGCCUCCUCGCUGGGGCCGGCUGGGCAACAUUCCGAGGGGACCGUCCCCUCGGUAAUGGCGAAUGGGACCCA [G10C C30G], which self-cleavage is on record?
**A.** 0.212

**Q.** With GGCCGGCAUCGUCCCAGCCUCCUCGCUGGAGCCGGCUGGGCAACAUUCCGAGGGGACCGUCCCCUCGGUAAUGGCGAAUGGGACCCA [G10C C30A] as the variant, how does the self-cleavage read?
**A.** 0.107

**Q.** For GGCCGGCAUCGUCCCAGCCUCCUCGCUGGCGCCGGCUGGGGAACAUUCCGAGGGGACCGUCCCCUCGGUAAUGGCGAAUGGGACCCA [G10C C41G], which self-cleavage is on record?
**A.** 0.437

**Q.** For GGCCGGCAUCGUCCCAGCCUCCUCGCUGGCGCCGGCUGGGAAACAUUCCGAGGGGACCGUCCCCUCGGUAAUGGCGAAUGGGACCCA [G10C C41A], which self-cleavage is on record?
**A.** 0.767

**Q.** Which self-cleavage does the source give for GGCCGGCAUCGUCCCAGCCUCCUCGCUGGCGCCGGCUGGGUAACAUUCCGAGGGGACCGUCCCCUCGGUAAUGGCGAAUGGGACCCA [G10C C41U] here?
**A.** 0.692

**Q.** With GGCCGGCAUCGUCCCAGCCUCCUCGAUGGCGCCGGCUGGGCAACAUUCCGAGGGGACCGUCCCCUCGGUAAUGGCGAAUGGGACCCA [G10C C26A] as the variant, how does the self-cleavage read?
**A.** 1.12

**Q.** With GGCCGGCAUCGUCCCAGCCUCCUCGGUGGCGCCGGCUGGGCAACAUUCCGAGGGGACCGUCCCCUCGGUAAUGGCGAAUGGGACCCA [G10C C26G] as the variant, how does the self-cleavage read?
**A.** 1.14

**Q.** With GGCCGGCAUCGUCCGAGCCUCCUCGCUGGCGCCGGCUGGGCAACAUUCCGAGGGGACCGUCCCCUCGGUAAUGGCGAAUGGGACCCA [G10C C15G] as the variant, how does the self-cleavage read?
**A.** 0.0723

**Q.** With GGCCGGCAUCGUCCCAGCCUCCUCGCUGGCGCCGGCUGGGCAAAAUUCCGAGGGGACCGUCCCCUCGGUAAUGGCGAAUGGGACCCA [G10C C44A] as the variant, how does the self-cleavage read?
**A.** 0.615

**Q.** With GGCCGGCAUCGUCCCAGCCUCCUCGCUGGCGCCGGCUGGGCAAGAUUCCGAGGGGACCGUCCCCUCGGUAAUGGCGAAUGGGACCCA [G10C C44G] as the variant, how does the self-cleavage read?
**A.** 0.415

**Q.** Which self-cleavage does the source give for GGCCGGCAUCGUCCCAGCCUCCUCGCUGGCGCCGGCUGGGCAACAUUCCGAGGGGACCGUCCCCUCGGUAAUGGCGAAUGGGACCCU [G10C A87U] here?
**A.** 0.984

**Q.** Which self-cleavage does the source give for GGCCGGCAUCGUCCCAGCCUCCUGGCUGGCGCCGGCUGGGCAACAUUCCGAGGGGACCGUCCCCUCGGUAAUGGCGAAUGGGACCCA [G10C C24G] here?
**A.** 0

**Q.** With GGCCGGCAUCGUCCCAGCCUGCUCGCUGGCGCCGGCUGGGCAACAUUCCGAGGGGACCGUCCCCUCGGUAAUGGCGAAUGGGACCCA [G10C C21G] as the variant, how does the self-cleavage read?
**A.** 0.032

**Q.** For GGCCGGCAUCGUCCCAGCCUUCUCGCUGGCGCCGGCUGGGCAACAUUCCGAGGGGACCGUCCCCUCGGUAAUGGCGAAUGGGACCCA [G10C C21U], which self-cleavage is on record?
**A.** 0.0256

**Q.** Which self-cleavage does the source give for GGCCGGCAUCGUCCCAGCCUACUCGCUGGCGCCGGCUGGGCAACAUUCCGAGGGGACCGUCCCCUCGGUAAUGGCGAAUGGGACCCA [G10C C21A] here?
**A.** 0.0723

**Q.** For GGCCGGCAUCGUCCCAGGCUCCUCGCUGGCGCCGGCUGGGCAACAUUCCGAGGGGACCGUCCCCUCGGUAAUGGCGAAUGGGACCCA [G10C C18G], which self-cleavage is on record?
**A.** 0.0594
